Experimental data taken from patent US20160185837A1 (Medimmune Limited, priority 2013, published 2016).

How the values were obtained:
Type in all cases: cell-based
[1] = molecular target: T1, mouse GIP receptor (mGIPr) (Mus musculus, UniProt Q0P543); assay: BSA-cAMP assay, cells expressing mouse GIP receptor; conditions: Batch 1; BSA-cAMP assay; read-out: mGIPr cAMP activity EC50
T1 construct: expressed in transfected cells; host or cells: HEK293s or CHO cells
T1 sequence (Q0P543 19-460): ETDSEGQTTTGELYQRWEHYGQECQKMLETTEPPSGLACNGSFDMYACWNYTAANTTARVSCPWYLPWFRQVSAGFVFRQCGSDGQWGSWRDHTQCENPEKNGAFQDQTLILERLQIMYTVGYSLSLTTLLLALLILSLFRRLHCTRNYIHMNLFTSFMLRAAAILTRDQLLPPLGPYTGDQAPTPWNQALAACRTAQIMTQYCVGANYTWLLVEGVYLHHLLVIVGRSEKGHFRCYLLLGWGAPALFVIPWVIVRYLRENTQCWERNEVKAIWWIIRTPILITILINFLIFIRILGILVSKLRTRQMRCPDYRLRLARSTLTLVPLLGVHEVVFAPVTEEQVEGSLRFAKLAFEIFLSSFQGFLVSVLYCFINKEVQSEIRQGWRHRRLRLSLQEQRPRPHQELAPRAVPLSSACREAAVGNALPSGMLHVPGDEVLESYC
Procedure: (§1) One basic cAMP assays was performed, differing in the medium used for the assay, the “BSA-cAMP assay”:
(§2) BSA-based assay medium: 0.1% bovine serum albumin (BSA) in
(§3) In certain aspects, the assay can also be carried out in medium supplemented with serum albumin that corresponds to the receptor being tested, e.g., human serum albumin for testing cAMP activity at hGIPr or hGLP-1r, rat serum albumin for testing cAMP activity at rGIPr or rGLP-1r, and so on. […] All sample dilutions were made in duplicate.
(§4) A frozen cryo-vial of cells expressing the receptor of interest was thawed rapidly in a water-bath, transferred to pre-warmed assay media and spun at 240×g for 5 minutes. Cells were re-suspended in assay buffer at an optimized concentration (e.g., hGLP-1r and hGIPr cells at 0.5×10^5 cells/ml).
(§5) To this, 5 μL cell suspension was added and the plates incubated at room temperature for 30 minutes.
(§6) cAMP levels were measured using a commercially available cAMP dynamic 2 HTRF kit (Cisbio, Cat #62AM4PEJ), following the two step protocol as per manufacturer's recommendations. In brief; anti-cAMP cryptate (donor fluorophore) and cAMP-d2 (acceptor fluorophore) were made up separately by diluting each 1/20 in conjugate & lysis buffer provided in the kit. 5 μL anti-cAMP cryptate was added to all wells of the assay plate, and 5 μL cAMP-d2 added to all wells except non-specific binding (NSB) wells, to which conjugate and lysis buffer was added. […] Data was transformed to % Delta F as described in manufacturer's guidelines and then transformed to percent activation of maximal native agonist response and analysed by 4-parameter logistic fit to determine EC50 values.
(§7) We used unconstrained 4 parameter logistic fit of data, curve mid-point to determine EC50. This was tested on two occasions, not two batches.
(§8) In order to be able to carry out in vivo studies in rodents, IP088 was tested for potency against the mouse receptors mGIPr and mGLP-1r as well as the rat receptors rGIPr and rGLP-1r, using cells expressing the respective receptors in the cAMP assay described above.

[2] = molecular target: T2, human GLP-1 receptor (hGLP-1r) (Homo sapiens, UniProt P43220); assay: BSA-cAMP assay, cells expressing human GLP-1 receptor; conditions: Batch 1; BSA-cAMP assay; read-out: hGLP1r cAMP activity EC50
T2 construct: expressed in transfected cells
Procedure: as §1, §2, §3, §4, §5, §6, §7

[3] = molecular target: T3, mouse GLP-1 receptor (mGLP-1r) (Mus musculus, UniProt O35659); assay: BSA-cAMP assay, cells expressing mouse GLP-1 receptor; conditions: Batch 1; BSA-cAMP assay; read-out: mGLP1r cAMP activity EC50
T3 construct: expressed in transfected cells; host or cells: HEK293s or CHO cells
T3 sequence (O35659 22-463): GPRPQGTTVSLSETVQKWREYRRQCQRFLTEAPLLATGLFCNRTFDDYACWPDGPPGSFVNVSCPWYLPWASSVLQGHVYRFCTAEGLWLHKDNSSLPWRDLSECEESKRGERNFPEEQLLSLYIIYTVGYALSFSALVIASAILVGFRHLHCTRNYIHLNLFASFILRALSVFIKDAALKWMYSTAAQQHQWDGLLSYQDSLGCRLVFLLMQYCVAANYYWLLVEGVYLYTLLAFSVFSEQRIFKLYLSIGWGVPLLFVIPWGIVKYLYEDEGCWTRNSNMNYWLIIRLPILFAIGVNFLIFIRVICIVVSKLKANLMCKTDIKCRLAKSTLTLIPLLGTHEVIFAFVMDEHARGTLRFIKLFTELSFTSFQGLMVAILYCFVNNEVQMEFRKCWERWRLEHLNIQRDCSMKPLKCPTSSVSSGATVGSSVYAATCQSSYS
Procedure: as §1, §2, §3, §4, §5, §6, §7, §8

[4] = molecular target: T4, rat GIP receptor (rGIPr) (Rattus norvegicus, UniProt P43219); assay: BSA-cAMP assay, cells expressing rat GIP receptor; conditions: Batch 1; BSA-cAMP assay; read-out: rGIPr cAMP activity EC50
T4 construct: expressed in transfected cells; host or cells: HEK293s or CHO cells
T4 sequence (P43219 19-455): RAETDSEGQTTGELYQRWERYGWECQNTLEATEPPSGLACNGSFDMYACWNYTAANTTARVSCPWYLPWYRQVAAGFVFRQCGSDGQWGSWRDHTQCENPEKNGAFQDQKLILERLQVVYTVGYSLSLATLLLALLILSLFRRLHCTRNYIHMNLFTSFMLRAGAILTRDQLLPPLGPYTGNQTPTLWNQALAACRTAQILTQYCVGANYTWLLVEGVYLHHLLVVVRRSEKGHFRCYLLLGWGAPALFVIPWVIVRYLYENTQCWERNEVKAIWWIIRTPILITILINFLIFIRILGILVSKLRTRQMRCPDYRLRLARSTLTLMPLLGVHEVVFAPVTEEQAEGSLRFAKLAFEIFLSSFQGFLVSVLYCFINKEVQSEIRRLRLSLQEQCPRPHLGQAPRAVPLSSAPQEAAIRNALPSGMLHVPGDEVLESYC
Procedure: as §1, §2, §3, §4, §5, §6, §7, §8

[5] = molecular target: T5, human GIP receptor (hGIPr) (Homo sapiens, UniProt P48546); assay: BSA-cAMP assay, cells expressing human GIP receptor; conditions: Batch 1; BSA-cAMP assay; read-out: hGIPr cAMP activity EC50
T5 construct: expressed in transfected cells
T5 sequence (P48546 22-466): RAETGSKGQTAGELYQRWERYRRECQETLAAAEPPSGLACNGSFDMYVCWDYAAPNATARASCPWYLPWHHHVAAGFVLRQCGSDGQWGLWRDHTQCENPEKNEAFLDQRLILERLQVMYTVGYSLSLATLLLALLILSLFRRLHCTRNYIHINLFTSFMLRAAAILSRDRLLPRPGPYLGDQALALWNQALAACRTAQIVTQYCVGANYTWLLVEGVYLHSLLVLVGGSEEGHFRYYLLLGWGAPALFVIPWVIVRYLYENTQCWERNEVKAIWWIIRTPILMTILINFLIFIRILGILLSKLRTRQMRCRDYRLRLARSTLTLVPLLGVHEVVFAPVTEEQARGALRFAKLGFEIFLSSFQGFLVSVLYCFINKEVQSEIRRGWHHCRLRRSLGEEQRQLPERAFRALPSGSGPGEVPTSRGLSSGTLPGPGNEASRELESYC
Procedure: For human GIPr, two different lines were used, shown as “hGIPr” and “hGIPr (C3)” in Table 11.
as §1, §2, §3, §4, §5, §6, §7

[6] = molecular target: T6, human glucagon receptor (GCGr) (Homo sapiens, UniProt P47871); assay: BSA-cAMP assay, cells expressing human glucagon receptor; conditions: Batch 1, read-out: hGCGr cAMP activity EC50
T6 construct: expressed in transfected cells; host or cells: HEK293s or CHO cells
Procedure: as §1, §2, §3, §4, §5, §6, §7

[7] = molecular target: T7, rat GLP-1 receptor (rGLP-1r) (Rattus norvegicus, UniProt P32301); assay: BSA-cAMP assay, cells expressing rat GLP-1 receptor; conditions: Batch 1; BSA-cAMP assay; read-out: rGLP1r cAMP activity EC50
T7 construct: expressed in transfected cells; host or cells: HEK293s or CHO cells
T7 sequence (P32301 22-463): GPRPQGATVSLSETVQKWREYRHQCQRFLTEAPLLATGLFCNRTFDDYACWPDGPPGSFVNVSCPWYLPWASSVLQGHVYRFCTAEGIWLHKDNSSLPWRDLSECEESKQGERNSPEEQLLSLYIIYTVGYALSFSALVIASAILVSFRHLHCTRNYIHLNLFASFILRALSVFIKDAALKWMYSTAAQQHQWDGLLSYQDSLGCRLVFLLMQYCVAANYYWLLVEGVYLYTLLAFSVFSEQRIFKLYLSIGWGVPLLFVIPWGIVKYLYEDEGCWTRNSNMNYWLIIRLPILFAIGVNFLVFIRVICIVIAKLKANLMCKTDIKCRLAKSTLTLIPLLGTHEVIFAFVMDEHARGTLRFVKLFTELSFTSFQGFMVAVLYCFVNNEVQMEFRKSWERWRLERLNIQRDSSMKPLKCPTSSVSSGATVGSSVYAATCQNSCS
Procedure: as §1, §2, §3, §4, §5, §6, §7, §8

T2 sequence (P43220 24-463): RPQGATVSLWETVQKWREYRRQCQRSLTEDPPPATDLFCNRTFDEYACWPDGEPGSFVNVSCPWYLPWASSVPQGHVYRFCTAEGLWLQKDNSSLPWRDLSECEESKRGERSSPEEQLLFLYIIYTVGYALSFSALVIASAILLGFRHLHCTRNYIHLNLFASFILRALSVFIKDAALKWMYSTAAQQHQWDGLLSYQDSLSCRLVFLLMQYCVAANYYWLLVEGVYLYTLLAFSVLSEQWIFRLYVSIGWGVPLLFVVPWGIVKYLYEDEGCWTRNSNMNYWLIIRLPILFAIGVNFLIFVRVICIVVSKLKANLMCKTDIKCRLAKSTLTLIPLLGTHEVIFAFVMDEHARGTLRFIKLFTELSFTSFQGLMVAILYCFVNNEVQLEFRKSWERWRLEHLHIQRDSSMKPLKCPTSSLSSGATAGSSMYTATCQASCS
T6 sequence (P47871 26-477): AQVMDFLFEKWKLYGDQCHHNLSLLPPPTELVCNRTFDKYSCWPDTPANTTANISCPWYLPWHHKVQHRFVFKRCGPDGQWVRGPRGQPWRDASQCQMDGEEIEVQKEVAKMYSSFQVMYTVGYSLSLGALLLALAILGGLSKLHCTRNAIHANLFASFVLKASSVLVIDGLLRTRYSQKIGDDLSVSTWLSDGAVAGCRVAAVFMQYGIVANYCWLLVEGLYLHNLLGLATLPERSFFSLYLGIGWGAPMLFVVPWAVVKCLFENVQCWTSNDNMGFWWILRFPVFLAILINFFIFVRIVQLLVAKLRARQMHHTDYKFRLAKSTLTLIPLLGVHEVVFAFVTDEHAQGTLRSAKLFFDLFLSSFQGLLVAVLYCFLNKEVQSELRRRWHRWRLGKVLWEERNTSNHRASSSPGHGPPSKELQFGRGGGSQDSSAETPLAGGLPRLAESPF

Substance	EC50 [1] [nM]	EC50 [2] [nM]	EC50 [3] [nM]	EC50 [4] [nM]	EC50 [5] [nM]	EC50 [6] [nM]	EC50 [7] [nM]
IP386 (YSEGTFISDYSIAMDKIHQQDFVNWLLAQKGGGGGSGGGGSGGGGSGGGGSACPPC)	0.03	> 9130	> 16600	0.0085	0.0034	540	> 16600
IP380: Fc fusion, IgG1-fusion, SEQ ID NO:376; agonist peptide YSEGTFTSDYSKLLEEEAVRLFIEFLLAGG (YSEGTFTSDYSKLLEEEAVRLFIEFLLAGGGGGGSGGGGSGGGGSGGGGSATHTCPPC)	6.6	0.11	1.2	0.06	0.0084	25	0.031
IP302 (YSEGTFISDYSIALAAAAQQDFVNWLLAGGGGGGGSGGGGSGGGGSGGGGSATHTCPPC)	0.083	26	93	0.055	0.018	1200	7

Continued by falling EC50 [1], values first:

EC50 [1] [nM]	EC50 [2] [nM]	EC50 [3] [nM]	EC50 [4] [nM]	EC50 [5] [nM]	EC50 [6] [nM]	EC50 [7] [nM]	Substance
18	0.47	30	1.1	0.012	> 1560	0.16	IP385 (YSEGTFTSDYSIYLDRQAIDEFIAWLLKGGGGGGGSGGGGSGGGGSGGGGSACPPC)
5.4	0.091	0.73	0.045	0.0099	18	0.027	IP381: Fc fusion, IgG1-fusion, SEQ ID NO:377; agonist peptide YSEGTFTSDYSKLLEEEAVRLFIEYLLAGG (YSEGTFTSDYSKLLEEEAVRLFIEYLLAGGGGGGSGGGGSGGGGSGGGGSATHTCPPC)
